Data published in patent US20260139055A1.
Changes are numbered by the printed parent chain. In names and notes the source's numbering stands.

B1: wild-type canine IgGB (65) mAb (antibody, part only; not given: variable domains of unnamed mAb, not shown: another chain or arm of the molecule; small tags and cut ends)
constant: ASTTAPSVFPLAPSCGSTSGSTVALACLVSGYFPEPVTVSWNSGSLTSGVHTFPSVLQSSGLYSLSSMVTVPSSRWPSETFTCNVAHPASKTKVDKPVPKRENGRVPRPPDCPKCPAPEMLGGPSVFIFPPKPKDTLLIARTPEVTCVVVDLDPEDPEVQISWFVDGKQMQTAKTQPREEQFNGTYRVVSVLPIGHQDWLKGKQFTCKVNNKALPSPIERTISKARGQAHQPSVYVLPPSREELSKNTVSLTCLIKDFFPPDIDVEWQSNGQQEPESKYRTTPPQLDEDGSYFLYSKLSVDKSRWQRGDTFICAVMHEALHNHYTQESLSHSPGK
B2: canine IgGB (65) mAb with mutation A426M (antibody, part only; not given: Variable domains, not shown: another chain or arm of the molecule)
constant: B1 constant with A314M
B3: canine IgGB (65) mAb with mutation D312V (antibody, part only; not given: variable domains of unnamed mAb, not shown: another chain or arm of the molecule)
constant: B1 constant with D198V
B4: canine IgGB (65) mAb with mutation Q311I (antibody, part only; not given: variable domains of unnamed mAb, not shown: another chain or arm of the molecule)
constant: B1 constant with Q197I
B5: canine IgGB (65) mAb with mutation Q311M (antibody, part only; not given: Variable domains, not shown: another chain or arm of the molecule)
constant: B1 constant with Q197M
B6: canine IgGB (65) mAb with mutation A426P (antibody, part only; not given: Variable domains, not shown: another chain or arm of the molecule)
constant: B1 constant with A314P
B7: canine IgGB (65) mAb with mutation A426I (antibody, part only; not given: Variable domains, not shown: another chain or arm of the molecule)
constant: B1 constant with A314I
B8: canine IgGB (65) mAb with mutation T286V (antibody, part only; not given: variable domains of unnamed mAb, not shown: another chain or arm of the molecule)
constant: B1 constant with T172V
B9: canine IgGB (65) mAb with mutation A426T (antibody, part only; not given: variable domains of unnamed mAb, not shown: another chain or arm of the molecule)
constant: B1 constant with A314T
B10: canine IgGB (65) mAb with mutation T286Q (antibody, part only; not given: Variable domains, not shown: another chain or arm of the molecule)
constant: B1 constant with T172Q
B11: canine IgGB (65) mAb with mutation Q311P (antibody, part only; not given: variable domains of unnamed mAb, not shown: another chain or arm of the molecule)
constant: B1 constant with Q197P
B12: canine IgGB (65) mAb with mutation Q311N (antibody, part only; not given: variable domains of unnamed mAb, not shown: another chain or arm of the molecule)
constant: B1 constant with Q197N
B13: canine IgGB (65) mAb with mutation Q311T (antibody, part only; not given: Variable domains, not shown: another chain or arm of the molecule)
constant: B1 constant with Q197T
B14: canine IgGB (65) mAb with mutation T286G (antibody, part only; not given: Variable domains, not shown: another chain or arm of the molecule)
constant: B1 constant with T172G
B15: canine IgGB (65) mAb with mutation T286N (antibody, part only; not given: Variable domains, not shown: another chain or arm of the molecule)
constant: B1 constant with T172N
B16: canine IgGB (65) mAb with mutation T286R (antibody, part only; not given: Variable domains, not shown: another chain or arm of the molecule)
constant: B1 constant with T172R
B17: canine IgGB (65) mAb with mutation A426N (antibody, part only; not given: Variable domains, not shown: another chain or arm of the molecule)
constant: B1 constant with A314N
B18: canine IgGB (65) mAb with mutation Q311E (antibody, part only; not given: Variable domains, not shown: another chain or arm of the molecule)
constant: B1 constant with Q197E
B19: canine IgGB (65) mAb with mutation D312G (antibody, part only; not given: Variable domains, not shown: another chain or arm of the molecule)
constant: B1 constant with D198G
B20: canine IgGB (65) mAb with mutation A426C (antibody, part only; not given: Variable domains, not shown: another chain or arm of the molecule)
constant: B1 constant with A314C
B21: canine IgGB (65) mAb with mutation A426K (antibody, part only; not given: Variable domains, not shown: another chain or arm of the molecule)
constant: B1 constant with A314K
B22: canine IgGB (65) mAb with mutation D312I (antibody, part only; not given: Variable domains, not shown: another chain or arm of the molecule)
constant: B1 constant with D198I
B23: canine IgGB (65) mAb with mutation D312A (antibody, part only; not given: variable domains of unnamed mAb, not shown: another chain or arm of the molecule)
constant: B1 constant with D198A
B24: canine IgGB (65) mAb with mutation D312K (antibody, part only; not given: variable domains of unnamed mAb, not shown: another chain or arm of the molecule)
constant: B1 constant with D198K
B25: canine IgGB (65) mAb with mutation Q311R (antibody, part only; not given: Variable domains, not shown: another chain or arm of the molecule)
constant: B1 constant with Q197R
B26: canine IgGB (65) mAb with mutation T286S (antibody, part only; not given: Variable domains, not shown: another chain or arm of the molecule)
constant: B1 constant with T172S
B27: canine IgGB (65) mAb with mutation Q311C (antibody, part only; not given: Variable domains, not shown: another chain or arm of the molecule)
constant: B1 constant with Q197C
B28: canine IgGB (65) mAb with mutation D312Y (antibody, part only; not given: variable domains of unnamed mAb, not shown: another chain or arm of the molecule)
constant: B1 constant with D198Y
B29: canine IgGB (65) mAb with mutation D312F (antibody, part only; not given: Variable domains, not shown: another chain or arm of the molecule)
constant: B1 constant with D198F
B30: canine IgGB (65) mAb with mutation T286H (antibody, part only; not given: variable domains of unnamed mAb, not shown: another chain or arm of the molecule)
constant: B1 constant with T172H
B31: canine IgGB (65) mAb with mutation A426E (antibody, part only; not given: Variable domains, not shown: another chain or arm of the molecule)
constant: B1 constant with A314E
B32: canine IgGB (65) mAb with mutation T286D (antibody, part only; not given: Variable domains, not shown: another chain or arm of the molecule)
constant: B1 constant with T172D
B33: canine IgGB (65) mAb with mutation Q311D (antibody, part only; not given: Variable domains, not shown: another chain or arm of the molecule)
constant: B1 constant with Q197D
B34: canine IgGB (65) mAb with mutation D312N (antibody, part only; not given: Variable domains, not shown: another chain or arm of the molecule)
constant: B1 constant with D198N
B35: canine IgGB (65) mAb with mutation T286C (antibody, part only; not given: variable domains of unnamed mAb, not shown: another chain or arm of the molecule)
constant: B1 constant with T172C
B36: canine IgGB (65) mAb with mutation D312R (antibody, part only; not given: variable domains of unnamed mAb, not shown: another chain or arm of the molecule)
constant: B1 constant with D198R
B37: canine IgGB (65) mAb with mutation Q311H (antibody, part only; not given: variable domains of unnamed mAb, not shown: another chain or arm of the molecule)
constant: B1 constant with Q197H
B38: canine IgGB (65) mAb with mutation A426Q (antibody, part only; not given: variable domains of unnamed mAb, not shown: another chain or arm of the molecule)
constant: B1 constant with A314Q
B39: canine IgGB (65) mAb with mutation A426D (antibody, part only; not given: Variable domains, not shown: another chain or arm of the molecule)
constant: B1 constant with A314D
B40: canine IgGB (65) mAb with mutation D312E (antibody, part only; not given: Variable domains, not shown: another chain or arm of the molecule)
constant: B1 constant with D198E
B41: canine IgGB (65) mAb with mutation D312T (antibody, part only; not given: Variable domains, not shown: another chain or arm of the molecule)
constant: B1 constant with D198T
B42: canine IgGB (65) mAb with mutation A426G (antibody, part only; not given: variable domains of unnamed mAb, not shown: another chain or arm of the molecule)
constant: B1 constant with A314G
B43: canine IgGB (65) mAb with mutation Q311Y (antibody, part only; not given: variable domains of unnamed mAb, not shown: another chain or arm of the molecule)
constant: B1 constant with Q197Y
B44: canine IgGB (65) mAb with mutation D312Q (antibody, part only; not given: Variable domains, not shown: another chain or arm of the molecule)
constant: B1 constant with D198Q
B45: canine IgGB (65) mAb with mutation T286P (antibody, part only; not given: Variable domains, not shown: another chain or arm of the molecule)
constant: B1 constant with T172P
B46: canine IgGB (65) mAb with mutation D312C (antibody, part only; not given: variable domains of unnamed mAb, not shown: another chain or arm of the molecule)
constant: B1 constant with D198C
B47: canine IgGB (65) mAb with mutation D312S (antibody, part only; not given: variable domains of unnamed mAb, not shown: another chain or arm of the molecule)
constant: B1 constant with D198S
B48: canine IgGB (65) mAb with mutation D312W (antibody, part only; not given: Variable domains, not shown: another chain or arm of the molecule)
constant: B1 constant with D198W
B49: canine IgGB (65) mAb with mutation Q311L (antibody, part only; not given: Variable domains, not shown: another chain or arm of the molecule)
constant: B1 constant with Q197L
B50: canine IgGB (65) mAb with mutation T286E (antibody, part only; not given: Variable domains, not shown: another chain or arm of the molecule)
constant: B1 constant with T172E
B51: canine IgGB (65) mAb with mutation A426R (antibody, part only; not given: variable domains of unnamed mAb, not shown: another chain or arm of the molecule)
constant: B1 constant with A314R
B52: canine IgGB (65) mAb with mutation Q311F (antibody, part only; not given: Variable domains, not shown: another chain or arm of the molecule)
constant: B1 constant with Q197F
B53: canine IgGB (65) mAb with mutation D312M (antibody, part only; not given: Variable domains, not shown: another chain or arm of the molecule)
constant: B1 constant with D198M
B54: canine IgGB (65) mAb with mutation D312H (antibody, part only; not given: Variable domains, not shown: another chain or arm of the molecule)
constant: B1 constant with D198H
B55: canine IgGB (65) mAb with mutation Q311K (antibody, part only; not given: Variable domains, not shown: another chain or arm of the molecule)
constant: B1 constant with Q197K
B56: canine IgGB (65) mAb with mutation Q311G (antibody, part only; not given: Variable domains, not shown: another chain or arm of the molecule)
constant: B1 constant with Q197G
B57: canine IgGB (65) mAb with mutation A426S (antibody, part only; not given: Variable domains, not shown: another chain or arm of the molecule)
constant: B1 constant with A314S
B58: canine IgGB (65) mAb with mutation A426L (antibody, part only; not given: variable domains of unnamed mAb, not shown: another chain or arm of the molecule)
constant: B1 constant with A314L
B59: canine IgGB (65) mAb with mutation Q311S (antibody, part only; not given: variable domains of unnamed mAb, not shown: another chain or arm of the molecule)
constant: B1 constant with Q197S
B60: canine IgGB (65) mAb with mutation Q311W (antibody, part only; not given: variable domains of unnamed mAb, not shown: another chain or arm of the molecule)
constant: B1 constant with Q197W
B61: canine IgGB (65) mAb with mutation D312L (antibody, part only; not given: Variable domains, not shown: another chain or arm of the molecule)
constant: B1 constant with D198L

molecular target: canine FcRn complex (FcRn-alpha subunit and beta-microglobulin), His-tagged, biotin labeled (canine); experiment: SPR (Biacore), biotin-FcRn captured on SA surface, IgG flowed over, pH 6, 15 C

Binder | Kd [nM]
B1 | 30.7
B2 | 8.84
B3 | 14.1
B4 | 7.94
B5 | 13.1
B6 | 23.7
B7 | 8.54
B8 | 8.36
B9 | 8.72
B10 | 8.58
B11 | 21.2
B12 | 10.1
B13 | 10.7
B14 | 6.48
B15 | 6.32
B16 | 4.73
B17 | 5.33
B18 | 9.39
B19 | 26.8
B20 | 8.86
B21 | 3.81

Binder | Kd [nM]
B22 | 21.5
B23 | 10.3
B24 | 24
B25 | 15.2
B26 | 6.68
B27 | 10.3
B28 | 25.1
B29 | 21.9
B30 | 5.07
B31 | 4.77
B32 | 6.83
B33 | 13.3
B34 | 17.1
B35 | 8.19
B36 | 23.1
B37 | 6.66
B38 | 8.41
B39 | 14.9
B40 | 14.1
B41 | 10.6
B42 | 7.36

Binder | Kd [nM]
B43 | 2.61
B44 | 9.97
B45 | 6.73
B46 | 19
B47 | 14.8
B48 | 14.4
B49 | 19.1
B50 | 8.66
B51 | 4.23
B52 | 33
B53 | 16.2
B54 | 9.72
B55 | 6.23
B56 | 8.42
B57 | 11.9
B58 | 5.17
B59 | 8.7
B60 | 2.49
B61 | 12.1
